Test results from the supplement of paper PMC9170038.

Tested on: MS2 coat protein
Assay: apparent KD of MS2 coat protein; higher = weaker reporter binding
Conditions: Eterna round: R107; input ligand: none
In short: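 Titration buffer: 100 mM Tris-HCl pH 7.5, 80 mM KCl, 4 mM MgCl2, without or with constant ligand. Designed RNA switches transcribed on-chip from Illumina sequencing clusters received SNAP-549-labelled MS2 coat protein in twofold steps from 0.7 or 1.5 nM to 3 µM. Apparent KD is the median per design of fits to normalised cluster binding curves.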

In order of rising “apparent KD of MS2 coat protein” value:
1. UGGGAAGGAGGAAGGAGCGCCAUAAGGGUGACAGUCUGGGUACAUGAGGAUCACCCAUGUAGGCAGGUAGGUCGCCUAGCUCUCA [XArg-B16]  0.00914 µM
2. CUCCUGUGAGCGGCCGCCACUGGAGGCCUCGCGCGACAUGAGGAUCACCCAUGUUGGCCCGGCCUCAGGACCGGGUUCGCGCGAG [Same State - Tryptophan B Attempt #4 (HarryS)]  0.0111 µM
3. AGCCGGAUUACGGCCGCCACUGUAGACGUGACGAAAGUCGCGUCAACAUGAGGAUCACCCAUGUACAGGACCGGGUGGUCCGGCG [Omei Trp B SS A v1]  0.0137 µM
4. GUCGCUGAGGGAAGGAGCGUGAAGACAUGAGGAUCACCCAUGUAGAGGCGCCGAAGGCGUUCGCAGGUAGGUCGCCCUCAGUGAA [#1 Same State - Arginine B Attempt #25 (HarryS)]  0.0141 µM
5. CCAUGGCUAGGAAGGAGCGCAUACUUCACAUGAGGAUCACCCAUGUCGAGACGUGAGUCAGUGCAGGUAGGUCGCCUAGCCAUGG [Same State - Arginine B (Freestyle 30)]  0.0167 µM
6. UAGCGAUAAUCUGAUACCAGACGUGUGCUCUCCUCAGACAUGAGGAUCACCCAUGUAUGCGUCCCUUGGCAGCAGAGUGAGGAGA [Theo B Ex t5]  0.0196 µM
7. ACAAGAGGGAUGGAUACCAGCGACAUGAGGAUCACCCAUGUAUGAGGAUCAGCCAUGUUAUGCCCUUGGCAGCCACGAACAUCAG [SSAMULLIN]  0.0212 µM
8. CUUGUGGUCGGAAGGAGCGCGAUUACAUAACAUGAGGAUCACCCAUGUAAGAAAUUAUUCAUGCAGGUAGGUCGCCGGUCGUGGG [Same State Arginine B GF10]  0.0214 µM
9. UUGACAUGAGGAUCACCCAUGUAAACUGAAGGAGCGUCGAAAAUGACAGGUAGGUCGCAGAAUAAUAAAGGUGAUGGUAAAUAUU [Exclusion Arginine AGF1]  0.0223 µM
10. UGGAGUAGGGUAAAUAGGAUAAGUACAGAAGGAGCGCGAAUAAACGCAGGUAGGUCGCUGGAACACAUGAGGAUCACCCAUGUUG [Same State Arginine A GF 24]  0.0254 µM
11. UUAAUCAUUAUAGAAAACUAUAAUGCAGAAGGAGCGUGAUAAAACACAGGUAGGUCGCUGAAGGGAACAUGAGGAUCACCCAUGU [AstrosSSArgA#6]  0.0303 µM
12. ACAUGAGGAUCACCCAUGUGGCGUCUUGAUACCAGACCCGAAGUAGUCCCUUGGCAGCAACUACGUGAGGGUCGCCCAUGUGUAG [k'kmullin]  0.0304 µM
13. AGAAUAACAUGAGCAAAGCUCAUGUGCGAAGGAGCGGCGGAAACGCCAGGUAGGUCGCGCACAUGAGCAUCAGCCAUGUGUACCA [Omei Arginine B SS A v5]  0.0307 µM
14. AAUAGCUUGAGGAUCACCCAAGUAAAAGAUACCAGAGUGAUGAUCCUCCCUUGGCAGCUUAACGCUGAUUGAUUACAAUCAGCGA  0.0338 µM
15. GAUUACAUGAGGAUCACCCAUGUAACUGAAGGAGCGGUAAUAAAGCCAGGUAGGUCGCGGAACAACAUGUGGAUCACCCAUGUAA [#13 Exclusion - Arginine A]  0.0435 µM
16. AAAAGAGGUGGAAGGAGCGGGAGACAUGAGGAUCACCCAUGUGAUGUUACGAAAGGUUCAGCCCAGGUAGGUCGCCAUGUCGAAA [zczzmullin]  0.0468 µM
17. GUACAUGAGGAUCACCCAUGUAUAGUUGAAGGAGCGACCAGAGGGUCAGGUAGGUCGCAGCACAUGAGGUAAGCCCGUGUAUGCU [#1 Exclusion - Arginine A Attempt #19 (Inspired by Pi)]  0.0506 µM
18. AAAAUAAAGGCGGCCGCCACUAGAGUUAGGCUUAUGUACUGGGUAACAUGAGGAUCACCCAUGUAUAGGACCGGGCCAUAAUAAA [Same State - Tryptophan B (Freestyle 2)]  0.0573 µM
19. CUUGUUUGUGGAAGGAGCGCGAUUACAUAACAUGAGGAUCACCCAUGUAAGAAAUUAUUCAUGCAGGUAGGUCGCCAUUGGUGGG [Same State Arginine B GF8]  0.0622 µM
20. GUAUACAUGAGGAUCACCCAUGUACCAGAAGGAGCGCUGGAAACAGCAGGUAGGUCGCUGGUAGGUCCUCUAUCUAGACGUUCUA [EAA NP+V+V2 #5]  0.176 µM

Same assay, conditions: Eterna round: R107; input ligand: theophylline 20 uM

In order of falling “apparent KD of MS2 coat protein” value:
1. AAAAGAGGUGGAAGGAGCGGGAGACAUGAGGAUCACCCAUGUGAUGUUACGAAAGGUUCAGCCCAGGUAGGUCGCCAUGUCGAAA [zczzmullin]  0.268 µM
2. AGAAUAACAUGAGCAAAGCUCAUGUGCGAAGGAGCGGCGGAAACGCCAGGUAGGUCGCGCACAUGAGCAUCAGCCAUGUGUACCA [Omei Arginine B SS A v5]  0.201 µM
3. AAAAUAAAGGCGGCCGCCACUAGAGUUAGGCUUAUGUACUGGGUAACAUGAGGAUCACCCAUGUAUAGGACCGGGCCAUAAUAAA [Same State - Tryptophan B (Freestyle 2)]  0.0821 µM
4. ACACAUGAGGAUCACCCAUGUCCAAUAGAUACCAGUGAUACGGUGCACCCUUGGCAGCUGUUACUGAGUGAUGGUUCCCUCGGAA [Same State Theophylline A GF3]  0.0819 µM
5. GGUAUUGGAACAGAUACCAGUAUCUGUUGAUCCUACAUGAGGAUCACCCAUGUUAGAAAGUACCCUUGGCAGCUGUAAUAAUGCC [Theo B Ex t1]  0.0766 µM
6. GUACAUGAGGAUCACCCAUGUAUAGUUGAAGGAGCGACCAGAGGGUCAGGUAGGUCGCAGCACAUGAGGUAAGCCCGUGUAUGCU [#1 Exclusion - Arginine A Attempt #19 (Inspired by Pi)]  0.0591 µM
7. ACCUACACGGAGACGUGUAGGAGUAAUGAUACCAGCAUGGAGACAUGCCCUUGGCAGCGUUACAUGAGGAUCACCCAUGUAGGUU [ETHA #4]  0.059 µM
8. CUUGUUUGUGGAAGGAGCGCGAUUACAUAACAUGAGGAUCACCCAUGUAAGAAAUUAUUCAUGCAGGUAGGUCGCCAUUGGUGGG [Same State Arginine B GF8]  0.0531 µM
9. GAUUACAUGAGGAUCACCCAUGUAACUGAAGGAGCGGUAAUAAAGCCAGGUAGGUCGCGGAACAACAUGUGGAUCACCCAUGUAA [#13 Exclusion - Arginine A]  0.0516 µM
10. ACAUGAGGAUCACCCAUGUGGCGUCUUGAUACCAGACCCGAAGUAGUCCCUUGGCAGCAACUACGUGAGGGUCGCCCAUGUGUAG [k'kmullin]  0.0408 µM
11. UUGACAUGAGGAUCACCCAUGUAAACUGAAGGAGCGUCGAAAAUGACAGGUAGGUCGCAGAAUAAUAAAGGUGAUGGUAAAUAUU [Exclusion Arginine AGF1]  0.0345 µM
12. CUUGUGGUCGGAAGGAGCGCGAUUACAUAACAUGAGGAUCACCCAUGUAAGAAAUUAUUCAUGCAGGUAGGUCGCCGGUCGUGGG [Same State Arginine B GF10]  0.0296 µM
13. UCAUAAGUACCGGUCCUCAGAUCCUCAUGACGAGGACCGGUACGGCCGCCACUCGAAACAUGAGGAUCACCCAUGUAAUAAUAUU [Brourdmod11]  0.0285 µM
14. UGGAGUAGGGUAAAUAGGAUAAGUACAGAAGGAGCGCGAAUAAACGCAGGUAGGUCGCUGGAACACAUGAGGAUCACCCAUGUUG [Same State Arginine A GF 24]  0.0262 µM
15. AGCGUGCAUCGGAAAACGAUGUACGCAAAUCGAGGACCGGUACGGCCGCCACUCGUCCUCAACAUGAGGAUCACCCAUGUAAUAA [Mat - Exclusion - Trytophan A - D10]  0.0248 µM
16. CCUAGCACACAUGAUACCAGCGACAUGAGGAUCACCCAUGUACGGCGUGUAUCGCAAGGUUGCCCUUGGCAGCAUGAUAGUGCUG [Xeerdi]  0.0247 µM
17. AGCCGGAUUACGGCCGCCACUGUAGACGUGACGAAAGUCGCGUCAACAUGAGGAUCACCCAUGUACAGGACCGGGUGGUCCGGCG [Omei Trp B SS A v1]  0.0222 µM
18. GCAUCCUAGUCGGCCGCCACUGCACGAUCAGUGGCAGAUCGUCAACAUGAGGAUCACCCAUGUAGCAGGACCGGGACUAGGAUGC [(Trp1)-(TM)''-(TM)'-(Ms2)-(Trp2)_Design3]  0.0219 µM
19. GAGUUCCUGAGAGAUACCAGUGAGGCCACAUGAGGAUCACCCAUGUCCCUCACUCCGGCCCACCCUUGGCAGCUCGAAAGAUAUU [Exclusion Theophylline B GF 22]  0.0167 µM
